From patent US20160279204A1, “PEPTIDES AND PHARMACEUTICAL COMPOSITIONS FOR USE IN THE TREATMENT BY NASAL ADMINISTRATION OF PATIENTS SUFFERING FROM ANXIETY AND SLEEP DISORDERS” (MAX-PLANCK-GESELLSCHAFT ZUR FÖRDERUNG DER WISSENSCHAFT E.V., priority 2011, published 2016)
Entries after “also recorded” stand apart in the source; their conditions may differ. No end group written: not given here.

Key:
[1] = tested on: evoked neuronal activity flow from the dentate gyrus to area CA1; test: Voltage-sensitive dye imaging (VSDI) in VH slices; parameters: species or system mouse; conditions: (R)-SHA 68 10 μM, pretreatment 15 min, NPS 1 μM
Protocol: According to Maggio and Segal (2007) and Fanselow and Dong (2010), VSDI experiments were conducted in the VH. Horizontal brain slices (350 μm-thick) were prepared as described in Refojo et al., 2011 and/or von Wolff et al., 2011). Only the first two slices from the ventral surface of the brain in which the CA1 region was clearly visible were used for the measurements. Staining of slices with the voltage-sensitive dye Di-4-ANEPPS and VSDI were carried out at room temperature (23-25° C.). For staining, slices were kept for 15 min in carbogenated (95% O2/5% CO2) ACSF containing Di-4-ANEPPS (7.5 μg/mL; <0.1% DMSO). The ACSF (pH 7.4) consisted of (in mM): 125 NaCl, 2.5 KCl, 25 NaHCO3, 1.25 NaH2PO4, 2 CaCl2, 1 MgCl2, and 25 glucose. Afterwards, slices were stored for at least 30 min in pure carbogenated ACSF. In the recording chamber, slices were continuously superfused with carbogenated ACSF (3 mL/min flow rate). VSDI and data analysis were performed using the MiCAM02 hard- and software package (BrainVision, Tokyo, Japan). The tandem-lens fluorescence microscope was equipped with the MiCAM02-HR camera and the 2× and 1× lens at the objective and condensing side, respectively. Acquisition settings were: 88×60 pixels frame size, 36.4×40.0 μm pixel size, and 2.2 ms sampling time. To reduce noise, four acquisitions subsequently recorded at intervals of 5 s were averaged. Neuronal activity was evoked by square pulse electrical stimuli (200 μs, 15-20 V) delivered to the dentate gyrus granule cell layer via a custom-made monopolar tungsten electrode (Teflon-insulated to the tip of 75 μm diameter). From recorded signals, the fractional change in fluorescence (ΔF/F) was calculated. For all quantifications, ΔF/F values were spatially and temporally smoothed using a 3×3×3 average filter. VSDI signals presented in images were smoothed with a 5×5×3 average filter. Pixelation of images was reduced by the interpolation function of the MiCAM02 software. […]

[2] = tested on: NPS target cells in the murine brain; conditions: mouse, in vivo
Protocol: The mice were sacrificed 30 min post-injection.
Immunohistochemistry was performed on free-floating cryosections (40 μm).

[3] = tested on: ventral hippocampus (VH); test: Spread of Cy3-NPS after microinjection into area CA1 of the VH; assay type: in vivo, mouse; conditions: 0.07 nmol unilaterally into CA1 of VH, 30 min after injection
Protocol: Animals were fixed in a stereotactic frame and maintained under isoflurane anesthesia (Forene® 100%, V/V; induction: 2.5%; maintenance: 1.5%; in O2; flow rate: 1 L/min). The mice received acute analgesic treatment with Metacam s.c. during surgery (0.5 mg/kg; in NaCl). 23 gauge stainless-steel guide cannulas were implanted in the CA1 region of the VH at the following coordinates: 3.1 mm posterior, ±3 mm lateral from bregma, and 2 mm ventral from the skull surface (Franklin and Paxinos, 2007). The guide cannulas were fixed with two screws and a two-component adhesive. For behavioural experiments, animals were implanted bilaterally for later bilateral injection, whereas for Cy3-NPS injections, implantation was performed unilaterally. The animals were allowed to recover for at least 6 days before starting the behavioural experiments. Substance infusions were carried out manually, on mice anesthetised by brief inhalation of isoflurane, using a 30 gauge injection cannula connected to a Tygon tube and a 10 μL Hamilton syringe. After infusion, the injection cannula was kept in place for additional 30 s to prevent substance outflow.
Cy3-NPS was administered unilaterally at a concentration of 0.07 nmol in a volume of 0.7 μL ACSF. […] After mounting with a fluorescence-preserving medium (Shandon Immu-Mount, Thermo Scientific, Bonn, Germany), sections were stored at 4° C.

[4] = tested on: brain target neurons; conditions: mouse, in vivo, 4 h
Protocol: For intranasal application, the anesthetised mice were placed in a supine position, with the head supported at a 450 angle to the body as reported elsewhere (van den Berg et al., 2002). […] The mice were sacrificed at 15 min, 30 min and 4 hrs after the first application.
Brains were removed, post-fixed in 4% formaldehyde and cryoprotected in 20% sucrose, then shock-frozen in methylbutane. Immunohistochemistry was performed on free-floating cryosections (40 μm). The primary antibodies used were specific for neurofilament (1:1000; Abcam, Cambridge, UK) and GFAP (1:250; DAKO, Glostrup, Denmark). The secondary antibodies used were specific for mouse (Alexa 488 goat anti-mouse IgG) and rabbit (Alexa 488 donkey anti-rabbit IgG) (1:300; Invitrogen, Leek, The Netherlands). The sections were counterstained with DAPI (200 ng/ml; Carl Roth, Karlsruhe, Germany) and mounted with a fluorescence-preserving mounting medium (Shandon Immu-Mount, Thermo Scientific, Waltham, Mass., USA).
After acquisition, the images were processed using Photoshop and Illustrator (Adobe, San Jose, Calif., USA).

[5] = tested on: EGFP-NPSR; test: Cy3-NPS uptake in HEK cells transiently transfected with EGFP-NPSR; assay type: cell-based
Source text: In view of the fact that the NPSR is reported to be the only receptor mediating NPS effects (Duangdao et al., 2009) it may be concluded that the intracellular uptake of Cy3-NPS observed here also in vivo (FIGS. 1A-1D and FIG. 7A) likewise depends on the NPSR.

[6] = tested on: evoked neuronal activity flow from the dentate gyrus to area CA1; conditions: Refojo et al., 2011, von Wolff et al.; cited from earlier work

## O=C(NCc1ccc(F)cc1)N1CCN2C(=O)OC(c3ccccc3)(c3ccccc3)[C@H]2C1 [(R)-SHA 68, reference compound]
[1]
  effect of NPSR antagonist on the NPS effect: completely abolished

## Cy3-NPS: fluorescent NPS-conjugate (Cy3-NPS), Phoenix Pharmaceuticals (SFRNGVGTGMKKTSFQRAKS; also: Cy3 label, place not given here; UniProt P0C0P6 70-89, looked up)
[2]
  cellular fluorescence after ICV injection: single cells already exhibited distinct patterns of fluorescence
  co-localisation with neurofilament (NF) and GFAP markers: co-localised exclusively with the neuronal marker
  subcellular localisation in target cells: found in the cytosol and throughout the processes of target cells
[3]
  spread of injected Cy3-NPS: remained locally restricted to the VH and accumulated in single cells of the hippocampal pyramidal, radiate, and oriens layers; also recorded: locally restricted to the site of injection
  uptake in nuclei of the amygdala: not observed
[4]
  remaining Cy3-NPS after intranasal application: almost all traces of Cy3-NPS disappeared
[5]; 10 min of incubation with Cy3-NPS
  internalisation in HEK cells transfected with EGFP-NPSR: the receptor-ligand complex was internalised and subsequently accumulated in cytoplasmic and perinuclear vesicular structures
[5]; control cells without NPSR
  uptake in HEK cells transfected with empty EGFP-expression plasmid: did not take up Cy3-NPS molecules

## corticotropin-releasing hormone (SEEPPISLDLTFHLLREVLEMARAEQLAQQAHSNRKLMEII; ends and bridges not checked; UniProt P06850 154-194, looked up) [corticotropin-releasing hormone (CRH), anxiogenic neuropeptide]
[6]
  activity flow from the dentate gyrus to area CA1: enhances this activity flow
